The source of these data is FireProtDB (doi:10.1007/s00775-020-01777-0).

To fix the notation:
B1: Cytochrome c-553, B8C6L5 (parent)
chain: MKLTIVAALIASASAWTTPKSFESVKAAVAGAAVTAGVAVSPAFAGDVGAGEQIFNANCAACHAGGQNVIMPDKTLEKEALEQYLAGGRNEKAVMTQVTNGKNAMPAFGGRLSDEDIANVASYVIATSEAGWD

The data set covers variants of B1. To be noted: Thalassiosira pseudonana; pH 7.4; Thermal; UV/Vis spectroscopy; HEPES; transition: 2; reversible: > 90% (Yes); whole UniProt chain shown.

Take A126S: the Tm amounted to 35.1 °C and the “unfolding enthalpy (van 't Hoff)” value turned out to be 40.8 kcal/mol.

On to A86S, for which the Tm was found to be 38.9 °C and the “unfolding enthalpy (van 't Hoff)” value was found to be 43.7 kcal/mol.

For the variant A93S, the Tm was determined as 35.4 °C and the “unfolding enthalpy (van 't Hoff)” value is 45.9 kcal/mol.

Turning to A93S A126S, the Tm worked out at 32.2 °C and the “unfolding enthalpy (van 't Hoff)” value is 38.2 kcal/mol.
